Data reported in US7192728B2, “Screening assays for agents that alter inhibitor of apoptosis (IAP) protein regulation of caspase activity” (The Burnham Institute, priority 1997, dated 2007).

Key:
caspase-7 = molecular target: T1, caspase-7 (Homo sapiens, UniProt P55210); test: Inhibition of purified recombinant caspase-7, DEVD substrate hydrolysis and progress curves; format: biochemical
T1 construct: Purified active caspase concentrations ranged from 0.1 nM to 10 nM; His6; made in house; host or cells: E. coli BL21(DE3)pLysS
T1 sequence (P55210 24-198 limits assumed): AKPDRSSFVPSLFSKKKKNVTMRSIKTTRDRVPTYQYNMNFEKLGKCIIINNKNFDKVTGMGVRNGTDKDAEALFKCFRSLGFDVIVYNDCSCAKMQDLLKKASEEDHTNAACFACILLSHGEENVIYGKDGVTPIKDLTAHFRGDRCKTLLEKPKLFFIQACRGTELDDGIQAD
T1 sequence (P55210 207-303 limits assumed): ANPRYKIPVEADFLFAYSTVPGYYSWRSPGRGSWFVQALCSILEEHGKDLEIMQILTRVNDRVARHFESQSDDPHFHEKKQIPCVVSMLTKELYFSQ
Method: Purified recombinant caspase-1, caspase-3, caspase-6, caspase-7 or caspase-8 were incubated with DEVD-pNA, either alone or with a 10-fold to 50-fold molar excess of GST-XIAP (20 μM) and substrate hydrolysis was measured. Purified active caspase concentrations ranged from 0.1 nM to 10 nM. XIAP concentration ranged from 0.1 nM to 500 nM. Assays were performed in caspase buffer (50 mM Tris, pH 7.4, 100 mM NaCl, 10% sucrose, 5–10 mM DTT, 1 mM EDTA and 0.1% CHAPS).
Equilibria were determined from progress curves when substrate hydrolysis reached a steady-state; slopes were calculated by curve fit analysis using the cricket graph program. Experiments were performed using purified recombinant caspase-3, caspase-6, or caspase-7. DEVD-AFC hydrolysis was measured using 0.1 nM caspase and a range of concentrations (0.2 to 12 μM) of recombinant XIAP (rXIAP). […] Average ratio velocities (vi/vo, where “vi” indicates presence of GST-XIAP and “vo” indicates absence of GST-XIAP) were determined.
Caspase activity was determined essentially as described in Example II, using the benzylyoxycarbonyl-DEVD-AFC (SEQ ID NO: 2) substrate and was assayed at 37° C. using the Perkin-Elmer LS50B fluorometric plate reader in the kinetic mode with excitation and emission wavelengths of 400 nm and 505 nm, respectively. […] Reactions were performed in caspase buffer (50 mM Hepes, 100 mM NaCl, 1 mM EDTA, 0.1% CHAPS, 10% sucrose, 5 mM DTT). The inhibition constant, Ki, was calculated as described (Zhou et al., supra, 1997).

[1] = system: DEVD-pNA hydrolysis activity in 293 cell cytosolic extracts; test: Cytochrome c/dATP-induced caspase activation (DEVD hydrolysis) in 293 cell cytosolic extracts; format: biochemical, human
Method: Cells were washed with ice cold buffer A (20 mM Hepes (pH 7.5), 10 mM KCl, 1.5 mM MgCl2, 1 mM EDTA, 1 mM DTT and 0.1 mM PMSF) and suspended in 1 vol buffer A, then incubated on ice for 20 min. 293 cells were disrupted by passage 15× through a 26 gauge needle and Jurkat T cells were disrupted by dounce homogenization in 2 ml using 15 strokes with a pestle B. Cell extracts (10–15 mg total protein/ml) were clarified by centrifugation at 16,000×g for 30 min, then the NaCl concentration was increased by 50 mM. Cytosolic fractions were used immediately or stored frozen at −80° C.
Caspase activity was assayed by release of either 7-amino-4-trifluoromethyl-coumarin (AFC) or p-nitroanilide (pNA) from benzylyoxycarbonyl-DEVD (SEQ ID NO: 2) or benzylyoxycarbonyl-YVAD (SEQ ID NO: 3) synthetic peptides using a Molecular Devices Spectromax 340 for AFC labeled peptides or Perkin/Elmer LS50B for pNA labeled peptides (see Example II; see, also, Zhou et al., supra, 1997). Cytosolic extracts from 293 cells or Jurkat T cells were used directly (negative control) or were treated with 1 μM cytochrome c and 1 mM dATP or with cytochrome c, dATP and 0.2 μM GST-XIAP. Additional control reactions were performed by substituting 2 μM GST-Bcl-2, GST-Bax, GST-NM23 or GST-CD40 cytosolic domain, or 5 μM His6-S5a protein for GST-XIAP. DEVD-pNA hydrolysis was measured at various times and multiple experiments were performed using several different GST-XIAP preparations.

pro-caspase-9 = molecular target: T2, pro-caspase-9 (Homo sapiens, UniProt P55211); test: GST pull-down binding of in vitro translated pro-caspase-9; conditions: about 2 μM GST protein on glutathione-Sepharose
T2 construct: in vitro translated ^35S-labeled pro-caspase-9 and Apaf-1 were incubated individually or together; His6; made in house; host or cells: coupled in vitro transcription/translation in reticulocyte lysate (TNT kit, Promega)
T2 sequence (P55211 1-416): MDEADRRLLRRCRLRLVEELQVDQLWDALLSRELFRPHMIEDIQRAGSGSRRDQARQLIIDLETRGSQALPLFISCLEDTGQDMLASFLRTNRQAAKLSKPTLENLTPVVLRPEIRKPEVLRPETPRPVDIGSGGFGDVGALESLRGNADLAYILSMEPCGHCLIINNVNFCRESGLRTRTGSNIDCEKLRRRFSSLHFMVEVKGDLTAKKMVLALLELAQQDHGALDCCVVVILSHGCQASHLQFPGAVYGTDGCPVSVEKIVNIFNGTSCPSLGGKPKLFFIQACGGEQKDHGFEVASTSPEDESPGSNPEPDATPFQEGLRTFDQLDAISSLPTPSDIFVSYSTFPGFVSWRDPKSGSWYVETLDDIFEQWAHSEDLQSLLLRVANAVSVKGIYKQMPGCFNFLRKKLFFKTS
Method: After extensive washing, bound proteins were analyzed by SDS-PAGE and autoradiography. As a positive control, 1.5 μl of the in vitro translated reaction (IVT) was analyzed.

caspase-9 = molecular target: T3, caspase-9 (Homo sapiens, UniProt P55211); test: Inhibition of purified recombinant active caspase-9; format: biochemical; conditions: for pro-caspase-3 activation by caspase-9, coupled Ac-DEVD-AFC hydrolysis (in words): coupled reaction
T3 construct: Full length N-terminally tagged caspase-9 was subcloned from pcDNA3; His6 (N); made in house; host or cells: E. coli BL21 (DE3), vector pET-23d
T3 sequence (P55211 1-315 limits assumed): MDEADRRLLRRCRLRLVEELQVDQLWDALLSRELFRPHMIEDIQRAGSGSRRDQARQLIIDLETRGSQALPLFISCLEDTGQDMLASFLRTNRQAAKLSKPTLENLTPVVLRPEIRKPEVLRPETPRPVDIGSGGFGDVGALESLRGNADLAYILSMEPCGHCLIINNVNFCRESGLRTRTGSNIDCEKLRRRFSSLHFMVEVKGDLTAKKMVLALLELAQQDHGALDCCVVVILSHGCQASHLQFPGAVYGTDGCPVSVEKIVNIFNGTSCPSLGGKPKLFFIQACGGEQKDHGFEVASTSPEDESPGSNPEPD
T3 sequence (P55211 331-416 limits assumed): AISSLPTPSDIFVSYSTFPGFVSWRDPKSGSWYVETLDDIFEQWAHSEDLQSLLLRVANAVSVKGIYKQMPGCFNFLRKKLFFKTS
Method: Caspase-9 activity was measured by monitoring the processing and activity of the purified recombinant zymogen form of caspase-3 that was produced in bacteria. Active caspase-9 (0.1 μM) was incubated with pro-caspase-3 (0.5 μM) in the presence or absence of GST-XIAP (0.1 μM). Experiments were performed with two independent preparations of active caspase-9. Samples were subsequently analyzed for pro-caspase-3 processing by immunoblot analysis. Asterisks denote the processed forms of the large subunit of caspase-3. Samples were simultaneously assayed for release of the AFC fluorophore from DEVD-AFC. Activity was arbitrarily designated as 100% for one of the two preparations of active caspase-9.
For the results shown in FIG. 7C, pro-caspase-9 was in vitro translated in reticulocyte lysates in the presence of ^35S-L-methionine and then purified by metal chromatography. […] Proteins were analyzed by SDS-PAGE and autoradiography. An asterisk denotes the processed form of caspase-9.

XIAP: X chromosome linked inhibitor of apoptosis protein (Genbank U32974), used mostly as recombinant GST fusion or expressed from plasmid
inhibition of processing of DEVD-pNA by caspase-7 (caspase-7; 10-fold molar excess): greater than 95%
average ratio velocity (vi/vo), caspase-7 (caspase-7; DEVD-AFC hydrolysis with/without GST-XIAP): less than 0.2
Ki (caspase-7; progress curve analysis, DEVD-AFC 0.1 mM, 0.1 nM caspase, read-out: inhibition constant (Ki) for caspase-7): ~0.2 nM
DEVD-pNA hydrolysis, ΔA405 after 15 min ([1]; 293 extracts + cytochrome c/dATP, GST-XIAP 0.2 μM, GST controls 2 μM, His6-S5a 5 μM, untreated ≈0.01): approximately the same as untreated control extracts
reduction of cytochrome c/dATP-induced DEVD-pNA hydrolyzing activity ([1]; extracts of cells transfected with pcDNA3-XIAP versus control plasmid): greater than 50%
association with in vitro translated pro-caspase-9 (in words) (pro-caspase-9): associated with pro-caspase-9
processing of 35S-pro-caspase-9 by active caspase-9 (in words) (caspase-9; 0.1 μM caspase-9, 0.1 μM GST-XIAP, 30° C., 1 hr): potently inhibited
pro-caspase-3 activation by caspase-9, coupled Ac-DEVD-AFC hydrolysis (in words) (caspase-9): efficiently inhibited
cleavage of pro-caspase-3 by caspase-9, immunoblot (in words) (caspase-9; equimolar to caspase-9 (0.1 μM), pro-caspase-3 0.5 μM): strongly inhibited

c-IAP-2: cellular IAP protein c-IAP-2/HIAP-1/hMIHC, recombinant GST fusion or myc-tagged
DEVD hydrolysis in activated 293 cell cytosolic extracts (in words) ([1]; 3 μM, extracts activated 30 min with cytochrome c and dATP): inhibited DEVD hydrolysis
association with in vitro translated pro-caspase-9 (in words) (pro-caspase-9): associated with pro-caspase-9
pro-caspase-3 activation by caspase-9, coupled Ac-DEVD-AFC hydrolysis (in words) (caspase-9): efficiently inhibited
